From patent US20250320312A1 (OXITOPE PHARMA B V, published 2025)
Residue numbers refer to the chain shown, from its start. One block for each binder: values may come before it.

Tests used:
Assay in all cases: scFv ELISA
BSA = BSA (UniProt P02769)
[1] = molecular target: Peptide 1: Biotin-…-[Tyr(PC)]-acid
[2] = molecular target: Peptide 5: Biotin-…-[Tyr(PC)]-acid
[3] = molecular target: T1, Peptide 4: Biotin-AGGGGSGGGGSGGGGSAAA-Tyr-acid (N-terminal biotin; C-terminal acid)
T1 construct: Control peptide without PC
T1 peptide: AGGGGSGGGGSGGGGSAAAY
Summary of the method: (§1)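 Bound scFv was read as OD450 after HRP–anti-V5 detection, TMB development and HCl stop. PPE with BSA was incubated 1 h at RT on BSA-blocked wells coated overnight at 4° C. with peptide, or on streptavidin wells loaded 1 h with biotinylated PC-peptides at 1 μg/mL.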

[4] = molecular target: T2, Peptide 8: Biotin-AEAAAKEAAAKEAAAKEAAAKAAA-Tyr-acid (N-terminal biotin; C-terminal acid)
T2 construct: Control peptide without PC
T2 peptide: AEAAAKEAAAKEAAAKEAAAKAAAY
Summary of the method: as §1

Chain of BSA (P02769 25-607 limits assumed): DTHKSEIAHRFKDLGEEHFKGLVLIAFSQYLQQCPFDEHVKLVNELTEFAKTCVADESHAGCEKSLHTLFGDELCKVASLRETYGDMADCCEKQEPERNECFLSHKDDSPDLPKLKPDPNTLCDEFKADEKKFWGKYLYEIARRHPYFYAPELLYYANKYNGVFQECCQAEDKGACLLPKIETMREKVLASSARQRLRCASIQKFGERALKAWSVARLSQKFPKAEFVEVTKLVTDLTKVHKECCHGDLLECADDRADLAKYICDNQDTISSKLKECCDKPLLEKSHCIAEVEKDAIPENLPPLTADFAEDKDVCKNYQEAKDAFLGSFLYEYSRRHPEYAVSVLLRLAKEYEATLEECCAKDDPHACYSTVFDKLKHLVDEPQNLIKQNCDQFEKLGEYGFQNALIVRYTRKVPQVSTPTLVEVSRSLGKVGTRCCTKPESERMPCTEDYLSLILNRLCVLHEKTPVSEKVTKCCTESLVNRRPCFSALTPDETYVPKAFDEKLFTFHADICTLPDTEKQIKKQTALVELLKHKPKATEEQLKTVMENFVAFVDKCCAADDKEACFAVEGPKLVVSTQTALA

OD450 (BSA): 0.12 OD450
OD450 [1]: 1.47 OD450
OD450 [2]: 1.43 OD450
OD450 [3]: 0.06 OD450
OD450 [4]: 0.06 OD450
B1: PcOxP_DB03_F11 (scFv, V domains shown)
VH: EVQLLESGGGLVQPGGSLRLSCAASGFTFSDYYMEWVRQAPGKGLEWVAASRNKANSYTTAYADSVKGRFTISRDNSKNTLYLQMNSLRAEDTAVYYCARDYYGSSYWYFDVWGQGTLVTVSS
VL: DIVMTQSPDSLAVSLGERATINCTSSQSLLYSSNKKHYLAWYQQKPGQPPKLLIYGASNRYIGVPDRFSGSGSGTDFTLTISSLQAEDVAVYYCAQFYEYPLTFGGGTKVEIK
notes: scFv in periplasmic extract

OD450 (BSA): 0.08 OD450
OD450 [1]: 1.13 OD450
OD450 [2]: 1.93 OD450
OD450 [3]: 0.05 OD450
OD450 [4]: 0.05 OD450
B2: PcOxP_DB03_F03 (scFv, V domains shown)
VH: B1 VH with Y32Q, A55N, S57D, A61E, S105A
VL: B1 VL with S25A, L29V, L30Y, Y31S, S33K, N34H, S58N, A95G, E99S
notes: scFv in periplasmic extract

OD450 (BSA): 0.09 OD450
OD450 [1]: 0.93 OD450
OD450 [2]: 1.33 OD450
OD450 [3]: 0.06 OD450
OD450 [4]: 0.05 OD450
B3: PcOxP_DB04_B07 (scFv, V domains shown)
VH: B1 VH with F27P, Y32F, S57G, A61E
VL: B1 VL with S25A, Q27E, L30Y, Y31S, S33K, N34H, K36V, E99S
notes: scFv in periplasmic extract

OD450 (BSA): 0.06 OD450
OD450 [1]: 0.73 OD450
OD450 [2]: 1.04 OD450
OD450 [3]: 0.05 OD450
OD450 [4]: 0.04 OD450
B4: PcOxP_DB03_F05 (scFv, V domains shown)
VH: B1 VH with A55G, S57D, Y103F
VL: B1 VL with S25A, L29V, L30Y, Y31S, S33K, N34H, K35N, R60P, E99S
notes: scFv in periplasmic extract

OD450 (BSA): 0.08 OD450
OD450 [1]: 0.54 OD450
OD450 [2]: 1.03 OD450
OD450 [3]: 0.06 OD450
OD450 [4]: 0.05 OD450
B5: PcOxP_DB04_C10 (scFv, V domains shown)
VH: B1 VH with Y32G, S51I, S57D, A61E, S106H
VL: B1 VL with S25A, Q27E, L30Y, Y31S, S33K, N34H, K36V, E99S
notes: scFv in periplasmic extract

OD450 (BSA): 0.07 OD450
OD450 [1]: 1.23 OD450
OD450 [2]: 1.66 OD450
OD450 [3]: 0.06 OD450
OD450 [4]: 0.06 OD450
B6: PcOxP_DB04_D01 (scFv, V domains shown)
VH: B1 VH with A55G, S57D
VL: B1 VL with S25A, Q27E, L30Y, Y31S, S33K, N34H, K36V, N59Q, E99S
notes: scFv in periplasmic extract

OD450 (BSA): 0.08 OD450
OD450 [1]: 0.96 OD450
OD450 [2]: 1.2 OD450
OD450 [3]: 0.06 OD450
OD450 [4]: 0.04 OD450
B7: PcOxP_DB03_E04 (scFv, V domains shown)
VH: B1 VH with D31S, S57D, A61E
VL: B1 VL with S25A, Q27E, L30Y, Y31S, S33K, N34H, K36V, I62L, E99S
notes: scFv in periplasmic extract

OD450 (BSA): 0.08 OD450
OD450 [1]: 0.87 OD450
OD450 [2]: 1.27 OD450
OD450 [3]: 0.05 OD450
OD450 [4]: 0.06 OD450
B8: PcOxP_DB04_D05 (scFv, V domains shown)
VH: B1 VH with K54V, S57D, A61E
VL: B1 VL with S25A, Q27T, L30Y, Y31S, S33K, N34H, K36V, E99S
notes: scFv in periplasmic extract

OD450 (BSA): 0.07 OD450
OD450 [1]: 1.4 OD450
OD450 [2]: 1.58 OD450
OD450 [3]: 0.05 OD450
OD450 [4]: 0.04 OD450
B9: PcOxP_DB03_E11 (scFv, V domains shown)
VH: B1 VH with Y32G, S57D, A61E
VL: B1 VL with T24K, Q27E, L30Y, Y31S, S33K, K36V, E99H
notes: scFv in periplasmic extract

OD450 (BSA): 0.06 OD450
OD450 [1]: 0.45 OD450
OD450 [2]: 0.78 OD450
OD450 [3]: 0.05 OD450
OD450 [4]: 0.05 OD450
B10: PcOxP_DB04_B01 (scFv, V domains shown)
VH: B1 VH with F29Q, Y32F, S57D, A61E, S105E
VL: B1 VL with S25A, Q27V, L30Y, Y31S, S33K, N34H, K36V, A57P, E99S
notes: scFv in periplasmic extract

OD450 (BSA): 0.08 OD450
OD450 [1]: 1.57 OD450
OD450 [2]: 1.91 OD450
OD450 [3]: 0.06 OD450
OD450 [4]: 0.05 OD450
B11: PcOxP_DB03_G12 (scFv, V domains shown)
VH: B1 VH with A55Y, S57D, A61E
VL: B1 VL with T24K, Q27E, L29V, L30Y, Y31S, S33K, N34H, E99S
notes: scFv in periplasmic extract

OD450 (BSA): 0.06 OD450
OD450 [1]: 0.57 OD450
OD450 [2]: 0.88 OD450
OD450 [3]: 0.06 OD450
OD450 [4]: 0.06 OD450
B12: PcOxP_DB03_E12 (scFv, V domains shown)
VH: B1 VH with F27E, Y32F, A55W, S57D, A61E
VL: B1 VL with S25A, Q27E, L30Y, Y31S, S33K, N34H, K36V, H37N, E99S
notes: scFv in periplasmic extract

OD450 (BSA): 0.05 OD450
OD450 [1]: 0.27 OD450
OD450 [2]: 0.79 OD450
OD450 [3]: 0.04 OD450
OD450 [4]: 0.04 OD450
B13: PcOxP_DB03_E03 (scFv, V domains shown)
VH: B1 VH with F29E, Y32F, S57D, A61E
VL: B1 VL with T24K, S33K, K35N, K36V, H37N, A57E
notes: scFv in periplasmic extract

OD450 (BSA): 0.07 OD450
OD450 [1]: 1.56 OD450
OD450 [2]: 1.68 OD450
OD450 [3]: 0.05 OD450
OD450 [4]: 0.05 OD450
B14: PcOxP_DB03_F02 (scFv, V domains shown)
VH: B1 VH with D31S, S57D, A61E, G104D
VL: B1 VL with Q27E, Y31S, S33K, N34H, K36V, I62T, E99S
notes: scFv in periplasmic extract

OD450 (BSA): 0.09 OD450
OD450 [1]: 0.66 OD450
OD450 [2]: 1.19 OD450
OD450 [3]: 0.05 OD450
OD450 [4]: 0.05 OD450
B15: PcOxP_DB03_G01 (scFv, V domains shown)
VH: B1 VH with Y32G, S57F, A61E, Y102H
VL: B1 VL with S25A, Q27E, L30Y, Y31S, S33K, N34H, K36V, E99N
notes: scFv in periplasmic extract
